Laboratory results as given in publication PMC7156710, “The Sox2 transcription factor binds RNA”.
“And” between values parts separate entries of the source, which are not always exact repeats. Equal entries are not always repeated.

What was measured:
[1] = target: Sox2-HMG (thrombin cleaved) (Homo sapiens, UniProt P48431 38-121); test: fluorescence anisotropy; 10 mM Tris-HEPES pH 7.5, 8% Ficoll, 0.05% NP-40, 135 mM KCl, 15 mM NaCl, 1 mM DTT, 0.1 mg/mL BSA; 2 nM DNA or 3 nM RNA; details: protein: recombinant, tags: N-terminal GSHM left after thrombin cleavage of His6
[2] = target: Sox2-HMG (HRV 3C cleaved) (Homo sapiens, UniProt P48431 38-121); test: as above; details: protein: recombinant; tags: N-terminal GPHM left after removal of His8-MBP; label: 3'-FAM; hairpin
Sox2 full length = Sox2 full length (Homo sapiens, UniProt P48431 1-317); test: as above; details: protein: recombinant, tags: N-terminal His6 and thrombin site (retained)
Sox2-HMG [3] = target: T1, Sox2-HMG (Homo sapiens, UniProt P48431 40-123); test: fluorescence anisotropy; 10 mM Tris-HEPES pH 7.5, 135 mM KCl, 15 mM NaCl, 1 mM DTT, 8% Ficoll, 0.05% NP-40, 0.1 mg/mL BSA; 2 nM DNA or 3 nM RNA; room temperature (stated for competition); details: protein: recombinant, tags: N-terminal His6, thrombin cleaved
Sox2-HMG [4] = target: T1, Sox2-HMG; test: competition; unlabeled RNA vs labeled FGF4 DNA; 10 mM Tris-HEPES pH 7.5, 135 mM KCl, 15 mM NaCl, 1 mM DTT, 8% Ficoll, 0.05% NP-40, 0.1 mg/mL BSA; 2 nM DNA or 3 nM RNA; room temperature (stated for competition); details: protein: recombinant; tags: N-terminal His6, thrombin cleaved; label: 3' fluorescein; hairpin
Sox2-HMG [5] = target: T1, Sox2-HMG; test: EMSA; 10 mM Tris-HEPES pH 7.5, 135 mM KCl, 15 mM NaCl, 1 mM DTT, 8% Ficoll, 0.05% NP-40, 0.1 mg/mL BSA; 2 nM DNA or 3 nM RNA; room temperature (stated for competition); details: protein: recombinant; tags: N-terminal His6, thrombin cleaved; label: 3' fluorescein; hairpin
[6] = label: FAM, only (+) strand given
[7] = label: 3' fluorescein, unstructured

T1 sequence (P48431 40-123): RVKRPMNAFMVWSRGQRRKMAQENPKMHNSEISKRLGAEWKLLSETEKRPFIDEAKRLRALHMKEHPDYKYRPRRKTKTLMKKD
Chain of Sox2-HMG (thrombin cleaved) (P48431 other isoform, or with tags, fused parts or gaps): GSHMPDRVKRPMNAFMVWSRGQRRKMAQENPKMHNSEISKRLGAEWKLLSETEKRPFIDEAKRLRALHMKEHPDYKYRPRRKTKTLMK
Chain of Sox2-HMG (HRV 3C cleaved) (P48431 other isoform, or with tags, fused parts or gaps): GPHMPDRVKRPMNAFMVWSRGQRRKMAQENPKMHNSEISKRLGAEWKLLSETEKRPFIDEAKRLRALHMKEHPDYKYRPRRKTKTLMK
Chain of Sox2 full length (P48431 whole entry): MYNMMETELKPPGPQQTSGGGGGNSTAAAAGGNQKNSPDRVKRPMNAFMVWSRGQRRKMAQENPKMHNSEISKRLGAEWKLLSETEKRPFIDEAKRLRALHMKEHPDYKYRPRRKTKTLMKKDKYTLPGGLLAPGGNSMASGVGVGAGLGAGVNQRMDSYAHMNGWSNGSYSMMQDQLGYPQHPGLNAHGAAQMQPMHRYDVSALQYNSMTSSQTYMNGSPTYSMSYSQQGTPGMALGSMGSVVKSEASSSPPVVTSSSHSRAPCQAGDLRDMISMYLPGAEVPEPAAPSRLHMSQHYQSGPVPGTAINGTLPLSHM

| Binder | Kd ([1]; label: 3' fluorescein, hairpin) [nM] | Kd ([1]; label: 3' fluorescein) [nM] | further results |
| --- | --- | --- | --- |
| SOX2 enhancer dsDNA (dsDNA) DNA 1: CGCGCCATTGTGCCCGGGT DNA 2: ACCCGGGCACAATGGCGCG | – | – | Kd [1, 6]: 0.867 ± 0.219 nM |
| GGUCGCCGUGGCCACUUCGAAAGGGGUGGAAAGGGCGACC (structured_RNA) [Loop A] | 11.3 ± 2.5 | – | – |
| ES2 89-178 (structured_RNA) RNA: GGCUGGAACAUCUGUUUCUAGCUUGUUGUUCCUCUUGGCUGCUUUUCAAUUGGAUUUCCUCGAGCAGGUCCCAGGCUUGUCACUGCAGCCA | – | 13.4 ± 1.63 | – |
| xpt-pbuX riboswitch (structured_RNA) RNA: GGACAUAUAAUCGCGUGGAUAUGGCACGCAAGUUUCUACCGGGCACCGUAAAUGUCCGACUAUGUCC | – | 25.4 ± 2.54 | – |
| ES2 89-267 (structured_RNA) RNA: GGCUGGAACAUCUGUUUCUAGCUUGUUGUUCCUCUUGGCUGCUUUUCAAUUGGAUUUCCUCGAGCAGGUCCCAGGCUUGUCACUGCAGCCAGGGUCUGUUAACCAUCACCACUGGUUCUACAUUAAGUAGGAGGUUCAGGGCUAAGCUAAUAACUCGCCUGCCUUUCUGACUGAUCACAG | – | 32.4 ± 6.56 | – |
| CCND1_SM6 dsDNA (dsDNA) DNA 1: CGCGCACTACAGCCCGGGT DNA 2: ACCCGGGCTGTAGTGCGCG | – | – | Kd [1, 6]: 23.8 ± 5.4 nM |
| ES2 1-89 (structured_RNA) RNA: GGAAGAAGUGAAAUCACUAUAUUUAGAAACGAAUGCUACCAUCCCACCCCAACUACAUGUUCAGGUUAAAUGCGUGCACAUCCUGGUAG | – | 22.2 ± 3.26 | – |
| GGUCCAUGCGAAAGUAUGGACC (structured_RNA) [9 bp hairpin] | – | – | Kd [2]: 54 ± 6.94 nM |
| GGUCCAUGCGGGCGAAAGUCUGUAUGGACC (structured_RNA) [13 bp hairpin] | – | – | Kd [2]: 83 ± 9.8 nM |
| ES2 267-354 (structured_RNA) RNA: GGUGAUGUUCGCCGUGGCCACUUAUCAUGCGGGCUCCUUUGGGAGGGUGCUCUUCUUUGUCUGUACCUCUGGGUGGAAAGGGCGAAUUC | – | 10.3 ± 2.03 | – |
| AUACAACAUACAACAUACAACAUACAACAUACAACA (ssRNA) [env8 ssRNA] | – | – | Kd (Sox2 full length; [7]): 512 ± 76.5 nM; Kd [1, 7]: 502 ± 123 nM |
| DPPA4 enhancer dsDNA (dsDNA) DNA 1: CGCGCATTTGTACCCGGGT DNA 2: ACCCGGGTACAAATGCGCG | – | – | Kd [1, 6]: 3.4 ± 0.954 nM |
| env4 Cbl riboswitch (structured_RNA) RNA: GGUGUUAAAAGCAUAGUGGGAAAGUGACGUGUAAUUCGUCCACAUUACUUGAUGCGGUUAUAGUCCCAAUGCCACCUAACACAAAGUACGAGCAAGGAGACUC | – | 32.4 ± 1.08 | – |
| GGAUCAUGCGGGCGAAAGUCUGUACCUCUCC (structured_RNA) [Loop B, P1(3bp)] | 10.3 ± 1.94 | – | – |
| GGUUAUCAUGCGGGCGAAAGUCUGUACCUCUGGCC (structured_RNA) [Loop B, P1(5bp)] | 12.8 ± 1.84 | – | Kd (Sox2-HMG [3]; label: 3' fluorescein, hairpin): 12.8 ± 1.8 nM |
| CCND1_SM1 dsDNA (dsDNA) DNA 1: CGCGCCCTCTTCCCCGGGT DNA 2: ACCCGGGGAAGAGGGCGCG | – | – | Kd [1, 6]: 9.77 ± 1.07 nM |
| Loop B fully paired RNA duplex (Fig. 3g) (dsRNA) RNA 1: GGUCUUAUCAUGCGGGC RNA 2: GCCCGCAUGAUAAGACC | – | – | Kd ([1]; label: FAM on one strand): 35.1 ± 2.81 nM |

| Binder | Kd ([1]; label: 3' fluorescein, hairpin) [nM] | Kd ([1]; label: 3' fluorescein) [nM] | further results |
| --- | --- | --- | --- |
| ES2 179-267 (structured_RNA) RNA: GGGUCUGUUAACCAUCACCACUGGUUCUACAUUAAGUAGGAGGUUCAGGGCUAAGCUAAUAACUCGCCUGCCUUUCUGACUGAUCACAG | – | 11.5 ± 2.68 | – |
| FGF4 enhancer dsDNA (dsDNA) DNA 1: CGCGCCTTTGTTCCCGGGT DNA 2: ACCCGGGAACAAAGGCGCG | – | – | Kd (Sox2 full length; [6]): 2.1 ± 0.599 nM; Kd [1, 6]: 0.937 nM and 0.85 nM |
| ES2 1-178 (structured_RNA) RNA: GGAAGAAGUGAAAUCACUAUAUUUAGAAACGAAUGCUACCAUCCCACCCCAACUACAUGUUCAGGUUAAAUGCGUGCACAUCCUGGUAGCUGGAACAUCUGUUUCUAGCUUGUUGUUCCUCUUGGCUGCUUUUCAAUUGGAUUUCCUCGAGCAGGUCCCAGGCUUGUCACUGCAGCCA | – | 29.7 ± 4.07 | – |
| GGUCUUAUCAUGCGAAAGUACCUCUGGGACC (structured_RNA) [Loop B, P2(3bp)] | 11.4 ± 1.46 | – | – |
| tRNALeu(CAG) (structured_RNA) RNA: GCGAAGGUGGCGGAAUUGGUAGACGCGCUAGCUUCAGGUGUUAGUGUCCUUACGGACGUGGGGGUUCAAGUCCCCCCCCUCGCACCAGGAUCU | – | 26.5 ± 5.62 | – |
| GGUAUCAUGCGGAAACGCACCUCUACC (structured_RNA) [Loop B, P1/2(3bp)] | 10.6 ± 1.82 | – | – |
| GGUCCGAAAGGACC (structured_RNA) [5 bp hairpin] | – | – | Kd [2]: 71 ± 12.1 nM |
| Loop B fully paired RNA duplex (dsRNA) RNA 1: GGUCUUAUCAUGCGGGC RNA 2: GCCCGCAUGAUAAGACC | – | – | Kd (Sox2-HMG [3]; label: FAM on one strand, blunt): 54 ± 9 nM |
| ES2 179-354 (structured_RNA) RNA: GGGUCUGUUAACCAUCACCACUGGUUCUACAUUAAGUAGGAGGUUCAGGGCUAAGCUAAUAACUCGCCUGCCUUUCUGACUGAUCACAGUGAUGUUCGCCGUGGCCACUUAUCAUGCGGGCUCCUUUGGGAGGGUGCUCUUCUUUGUCUGUACCUCUGGGUGGAAAGGGCGAAUUC | – | 11.2 ± 0.792 | – |
| GGUCUUAAGGUGCGGGCGAAAGUCUGUACCUCUGGGACC (structured_RNA) [Loop B, Bulge(0+1)] | 10 ± 1.66 | – | Ki (Sox2-HMG [4]): 13 ± 4 nM |
| GGUCUUAUGGUGCGGGCGAAAGUCUGUACCUCUGGGACC (structured_RNA) [Loop B, Bulge(1+2)] | 12 ± 1.98 | – | – |
| GGUCUUAUCGUGCGGGCGAAAGUCUGUACCUCUGGGACC (structured_RNA) [Loop B, Bulge(2+3)] | 13.6 ± 2.46 | – | – |
| GGUCUUAUCAUGCGGGCGAAAGUCUGUACCUCUGGGACC (structured_RNA) [Loop B] | – | – | Kd ([1]; label: 3' fluorescein, hairpin with internal loop): 10 ± 1.68 nM |
| GGUGGGCUCCUUUGGGAGGGUGCUCUUCUUUGUCUACC (structured_RNA) [Loop C] | 11.2 ± 1.57 | – | – |
| GGUCUUAUCAUGCGCGAAAGUGUACCUCUGGGACC (structured_RNA) [Loop B, P2(5bp)] | 9.6 ± 1.32 | – | – |
| GGUCUUAUCAUGCGGGCGAAAGUCUGUAUGAUGGGACC (structured_RNA) [Loop B, Fully Paired] | 14.7 ± 1.68 | – | Kd (Sox2-HMG [5]): 20 ± 4 nM; Kd (Sox2-HMG [3]; label: 3' fluorescein, hairpin): 15 ± 2 nM |
